Experimental data taken from article doi:10.1101/2020.12.08.415968 (bioRxiv, 2020).

Target: T1, SiRHP (sulfite reductase hemoprotein, full length, hydrogenated) (Escherichia coli, UniProt P17846 1-570)
T1 sequence (looked up): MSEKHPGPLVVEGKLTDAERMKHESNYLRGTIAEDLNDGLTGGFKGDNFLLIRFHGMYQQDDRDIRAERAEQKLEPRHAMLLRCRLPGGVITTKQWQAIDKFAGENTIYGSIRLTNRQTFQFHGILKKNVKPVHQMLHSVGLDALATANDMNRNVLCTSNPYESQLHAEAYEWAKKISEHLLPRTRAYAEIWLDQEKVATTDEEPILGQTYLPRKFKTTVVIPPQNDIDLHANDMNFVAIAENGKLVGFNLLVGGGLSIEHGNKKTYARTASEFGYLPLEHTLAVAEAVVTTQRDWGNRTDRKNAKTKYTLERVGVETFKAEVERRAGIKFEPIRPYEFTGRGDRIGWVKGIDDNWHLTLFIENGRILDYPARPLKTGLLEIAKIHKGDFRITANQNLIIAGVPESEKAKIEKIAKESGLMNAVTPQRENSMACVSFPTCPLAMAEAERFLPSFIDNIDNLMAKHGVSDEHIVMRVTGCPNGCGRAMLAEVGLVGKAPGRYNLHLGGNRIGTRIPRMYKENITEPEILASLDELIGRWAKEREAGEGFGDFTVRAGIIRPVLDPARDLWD
Test: AUC

binding result: binds
B1: SiRFP-60 (monomeric 60 kDa sulfite reductase flavoprotein, 52 N-terminal amino acids removed) (domain or fragment, Escherichia coli, UniProt P38038 53-599, looked up)
chain: ATPAPAAEMPGITIISASQTGNARRVAEALRDDLLAAKLNVKLVNAGDYKFKQIASEKLLIVVTSTQGEGEPPEEAVALHKFLFSKKAPKLENTAFAVFSLGDSSYEFFCQSGKDFDSKLAELGGERLLDRVDADVEYQAAASEWRARVVDALKSRAPVAAPSQSVATGAVNEIHTSPYSKDAPLVASLSVNQKITGRNSEKDVRHIEIDLGDSGMRYQPGDALGVWYQNDPALVKELVELLWLKGDEPVTVEGKTLPLNEALQWHFELTVNTANIVENYATLTRSETLLPLVGDKAKLQHYAATTPIVDMVRFSPAQLDAEALINLLRPLTPRLYSIASSQAEVENEVHVTVGVVRYDVEGRARAGGASSFLADRVEEEGEVRVFIEHNDNFRLPANPETPVIMIGPGTGIAPFRAFMQQRAADEAPGKNWLFFGNPHFTEDFLYQVEWQRYVKDGVLTRIDLAWSRDQKEKVYVQDKLREQGAELWRWINDGAHIYVCGDANRMAKDVEQALLEVIAEFGGMDTEAADEFLSELRVERRYQRDVY
